# Test results taken from publication PMC1764428, “Secretion and properties of a hybrid Kluyveromyces lactis-Aspergillus niger β-galactosidase” (Microbial Cell Factories, 2006).
# B1: native K. lactis β-galactosidase (pSPGK1-LAC4) (Kluyveromyces lactis NRRL Y-1140) (protein)
# chain: MSCLIPENLRNPKKVHENRLPTRAYYYDQDIFESLNGPWAFALFDAPLDAPDAKNLDWETAKKWSTISVPSHWELQEDWKYGKPIYTNVQYPIPIDIPNPPTVNPTGVYARTFELDSKSIESFEHRLRFEGVDNCYELYVNGQYVGFNKGSRNGAEFDIQKYVSEGENLVVVKVFKWSDSTYIEDQDQWWLSGIYRDVSLLKLPKKAHIEDVRVTTTFVDSQYQDAELSVKVDVQGSSYDHINFTLYEPEDGSKVYDASSLLNEENGNTTFSTKEFISFSTKKNEETAFKINVKAPEHWTAENPTLYKYQLDLIGSDGSVIQSIKHHVGFRQVELKDGNITVNGKDILFRGVNRHDHHPRFGRAVPLDFVVRDLILMKKFNINAVRNSHYPNHPKVYDLFDKLGFWVIDEADLETHGVQEPFNRHTNLEAEYPDTKNKLYDVNAHYLSDNPEYEVAYLDRASQLVLRDVNHPSIIIWSLGNEACYGRNHKAMYKLIKQLDPTRLVHYEGDLNALSADIFSFMYPTFEIMERWRKNHTDENGKFEKPLILCEYGHAMGNGPGSLKEYQELFYKEKFYQGGFIWEWANHGIEFEDVSTADGKLHKAYAYGGDFKEEVHDGVFIMDGLCNSEHNPTPGLVEYKKVIEPVHIKIAHGSVTITNKHDFITTDHLLFIDKDTGKTIDVPSLKPEESVTIPSDTTYVVAVLKDDAGVLKAGHEIAWGQAELPLKVPDFVTETAEKAAKINDGKRYVSVESSGLHFILDKLLGKIESLKVKGKEISSKFEGSSITFWRPPTNNDEPRDFKNWKKYNIDLMKQNIHGVSVEKGSNGSLAVVTVNSRISPVVFYYGFETVQKYTIFANKINLNTSMKLTGEYQPPDFPRVGYEFWLGDSYESFEWLGRGPGESYPDKKESQRFGLYDSKDVEEFVYDYPQENGNHTDTHFLNIKFEGAGKLSIFQKEKPFNFKISDEYGVDEAAHACDVKRYGRHYLRLDHAIHGVGSEACGPAVLDQYRLKAQDFNFEFDLAFE
# notes: expressed in K. lactis MW190-9B (lac4-8); crude cell-free extract
# Substrate: O=[N+]([O-])c1ccccc1O[C@@H]1O[C@H](CO)[C@H](O)[C@H](O)[C@H]1O
# Experiment: o-nitrophenol release, Lineweaver-Burk
# Assay type: biochemical, Kluyveromyces lactis
# Conditions: crude extract (30 μg protein); buffer Z with 1.6 mM MgSO4; ONPG 2-12 mM
protein,measurement,value
B1,Km,1500 µM
